Results as given in patent publication US20040209282A1.

What was measured:
[1] = biological target: purified IgM antibody (38C13); assay: antibody microarray on FAST slide, goat anti-mouse IgM-HRP detection, chemiluminescence
[2] = biological target: 38C13 IgM surface receptor (idiotype receptor) of 38C13 B lymphoma cells; assay: cell capture microarray, previously frozen 38C13 cells, microscopy
[3] = biological target: 38C13 IgM surface receptor (idiotype receptor) of 38C13 B lymphoma cells; assay: cell capture microarray, 38C13 cells growing in culture, no washing, microscopy
[4] = biological target: 38C13 IgM surface receptor (idiotype receptor) of 38C13 B lymphoma cells; assay: antibody microarray probed with 38C13 cell extract, goat anti-mouse IgM-HRP detection

Substance: S1C5 anti-idiotype monoclonal antibody (anti-IgM antibody)
- IgM concentration at which a strong signal was seen [1]: 0.1 µg/mL
- lowest spotted S1C5 concentration giving a strong signal [1]: 25 µg/mL
- lowest printed antibody concentration at which bound cells were detected [2]: 6.25 µg/mL
- lowest printed antibody concentration at which bound cells were detected [3]: 3.12 µg/mL
- extract dilution at which 38C13 IgM was detected (fold dilution (1:x)) [4]: 2000
- lowest printed S1C5 concentration at which 38C13 IgM of the extract was detected [4]: 50 µg/mL
